Read-outs that look alike come from different tables or passages of the source. Ends that are not written are not given here. * marks the point of attachment. Dansyl = CN(C)c1cccc2c(S(=O)(=O)*)cccc12
Legend:
BACH1-P phosphopeptide [1] = target: T1, BACH1-P phosphopeptide (Homo sapiens, UniProt Q9BX63, also: phosphoserine (position not given here)); experiment: ITC
T1 chain: SRSTSPTFNK

BACH1-P phosphopeptide [2] = target: T1, BACH1-P phosphopeptide; experiment: ITC
dBACH1-P phosphopeptide [3] = target: T2, dBACH1-P phosphopeptide (Homo sapiens, UniProt Q9BX63, also: phosphoserine (position not given here)); experiment: fluorescence anisotropy
T2 chain: Dansyl-SRSTSPTFNK

bBACH1-P phosphopeptide [4] = target: T3, bBACH1-P phosphopeptide (Homo sapiens, UniProt Q9BX63, also: phosphoserine (position not given here), biotin (position not given here)); experiment: ITC
T3 chain: SRSTSPTFNK

bBACH1-P phosphopeptide [5] = target: T3, bBACH1-P phosphopeptide; experiment: SPR steady-state
bBACH1-P phosphopeptide [6] = target: T3, bBACH1-P phosphopeptide; experiment: SPR kinetics
BACH1-P phosphopeptide [7] = target: T1, BACH1-P phosphopeptide; experiment: ITC
bBACH1-P phosphopeptide [8] = target: T3, bBACH1-P phosphopeptide; experiment: SPR kinetics
BACH1-P phosphopeptide [9] = target: T1, BACH1-P phosphopeptide; experiment: ITC
dBACH1-P phosphopeptide [10] = target: T2, dBACH1-P phosphopeptide; experiment: stopped-flow fluorescence
bBACH1-P phosphopeptide [11] = target: T3, bBACH1-P phosphopeptide; experiment: SPR steady-state
bBACH1-P phosphopeptide [12] = target: T3, bBACH1-P phosphopeptide; experiment: SPR steady-state
BACH1-P phosphopeptide [13] = target: T1, BACH1-P phosphopeptide; experiment: ITC
dBACH1-P phosphopeptide [14] = target: T2, dBACH1-P phosphopeptide; experiment: stopped-flow fluorescence
[15] = target: T4, CtIP phosphopeptide phosphopeptide (Homo sapiens, UniProt Q99708, also: phosphoserine (position not given here)); experiment: SPR
T4 chain: PTRVSSPVFGAT

bBACH1-P phosphopeptide [16] = target: T3, bBACH1-P phosphopeptide; experiment: SPR steady-state

Kd (BACH1-P phosphopeptide [1]): 280 nM | Kd (BACH1-P phosphopeptide [2]): 330 nM | Kd (dBACH1-P phosphopeptide [3]): 180 nM | Kd (bBACH1-P phosphopeptide [4]): 230 nM | Kd (bBACH1-P phosphopeptide [5]): 530 nM | Kd (bBACH1-P phosphopeptide [6]): 90 nM | Kd (BACH1-P phosphopeptide [7]): 410 nM | Kd (bBACH1-P phosphopeptide [8]): 430 nM | Kd (BACH1-P phosphopeptide [9]): 490 nM | Kd (dBACH1-P phosphopeptide [10]): 110 nM | Kd (bBACH1-P phosphopeptide [11]): 560 nM | Kd (bBACH1-P phosphopeptide [12]): 260 nM | Kd (BACH1-P phosphopeptide [13]): 500 nM | Kd (dBACH1-P phosphopeptide [14]): 200 nM | Kd [15]: 1300 nM | Kd (bBACH1-P phosphopeptide [16]): 350 nM
B1: BRCA1-BRCT 1646-1859 (protein)
chain: VNKRMSMVVSGLTPEEFMLVYKFARKHHITLTNLITEETTHVVMKTDAEFVCERTLKYFLGIAGGKWVVSYFWVTQSIKERKMLNEHDFEVRGDVVNGRNHQGPKRARESQDRKIFRGLEICCYGPFTNMPTDQLEWMVQLCGASVVKELSSFTLGTGVHPIVVVQPDAWTEDNGFHAIGQMCEAPVVTREWVLDSVALYQCQELDTYLIPQIP
